B1: TPR t1 (parent)
chain: GACCAAUCUGCCCUCAGAGCUCGAGAACAUCUUCGGAUGCAGAGGAGGCAGGCUUCGGUGGCGCGAUAGCGCCAACGUCCUCAACCUCCAAUGCAUCCCACCACAUGAUGAUGCCUGAAGAGCCUUGGUUUUUUG

Variants of: B1
Assay: polymerase ribozyme fitness, log enrichment relative to wild type (log ratio); higher = more active; in vitro selection for triplet polymerase activity
In short: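 Each subunit of a heterodimeric triplet polymerase ribozyme was mutagenized into a library by PCR, transcribed, and subjected to one round of in vitro selection, run in triplicate. Libraries were annealed with a biotinylated primer, the partner subunit and triplets, incubated frozen at −7 °C, and extended constructs were gel-excised, captured on streptavidin beads and recovered by RT-PCR. Input and output libraries were sequenced on Illumina, keeping genotypes with ≥10 input reads and ≥1 read per output. Fitness is log base 2 of genotype enrichment divided by wild-type enrichment, from inverse-variance-weighted replicate averages.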

| Variant | polymerase ribozyme fitness (log ratio) |
| --- | --- |
| C56U G107U | -4.6 |
| U59A C64U C82G | -0.95 |
| G58A C72G C82A | -0.468 |
| U59A C64A A118U | -6.49 |
| G58A G63U A118G | -0.392 |
| G58A C79A | -1 |
| U59A C70U U96C | -1.25 |
| U59C G63A G69U | -5.13 |
| G57U U106G G128C | -3.98 |
| G57C U116C | -0.186 |
| U59C C89A A95C G113C | -4.48 |
| G58C G71A C82G C88G | -2.39 |
| U59A C85U G113A | -2.11 |
| C56U U59G C114G | -1.96 |
| G58A G71A U81G U132C | -3.8 |
| G58C C98G | -5.66 |
| G57U G71A | -0.471 |
| G57A C64G U67G U81A A111U | -6.28 |
| G57U U59A C124A | 1.82 |
| U59A C70G | -5.27 |
| G57U A84C C101G G122A | -3.55 |

| Variant | polymerase ribozyme fitness (log ratio) |
| --- | --- |
| G57A C72A C85U C99G U106G | -7.04 |
| G58A G120U | -0.283 |
| U59A C94A | -0.84 |
| G58C G117A | -0.561 |
| U59A U87A G113U A118G | -4.7 |
| G58U G60C C88U A95U | -2.05 |
| G58A U81A | -0.982 |
| G58C U59G C86G | -0.556 |
| G57U U116C | -1.31 |
| U59A U92G C104U | -2.6 |
| U59A U112A | 1.47 |
| G57U C62G U112A | -2.56 |
| G57C C89G | -0.917 |
| C56U U81G C82A | -1.57 |
| G57A C76A | -0.895 |
| G57U G77U G122A | -1.42 |
| G58C U106A | 0.185 |
| G57U U129C | -1.6 |
| G57A C72U | -1.29 |
| G58U C62A U92A | -5.81 |
| G58C C101U G122A | -1.1 |

| Variant | polymerase ribozyme fitness (log ratio) |
| --- | --- |
| G57A C72U G127U | -2.52 |
| G57A C76A A105C | -4.35 |
| G57U G77U G113A G127C | -2.59 |
| C56U U78C | -0.427 |
| U59C U78C G122A | -0.562 |
| G57A A66C | -2.98 |
| G58C C85U C123G U132A | 1.38 |
| U59C A118C | -2.95 |
| C56U U78C U81G C94U | -1.62 |
| U59A A83G | -0.546 |
| G57C C97U G113C | -3.16 |
| G57C G63A G69U | -1.39 |
| C56U U81C | 0.0987 |
| G58U C86A G117U U130G | -3.79 |
| G57U G61C U78G C114U A118U | -5.83 |
| G58U C70G U106C C124U U130A | -2.53 |
| G58A U59C C70G | -4.95 |
| G58A A90C | -1.28 |
| U59A G63U | -1.93 |
| G57A C94U | -2.53 |
| G58A C82U C115A C124U | -0.385 |

| Variant | polymerase ribozyme fitness (log ratio) |
| --- | --- |
| C56U U87A | -0.176 |
| C56U U96C | 0.246 |
| U59C C70U C85A | -2.04 |
| G57A C72A G120A | -0.828 |
| G58A A103G | -4.88 |
| C56U G120C G127U | 2.09 |
| U59C G113A | -1.03 |
| U59C G113U | -3.62 |
| G57U A83C G93C | -1.15 |
| U59A U81C U87A | -1.17 |
| U59C G71U C88U U92A | -5.66 |
| U59A C70U U87A | -1.83 |
| U59A G77A | -0.182 |
| C56U U78G U106G G110A U129A U131C | -4.97 |
| G58C C115G C123A G135A | -3.89 |
| G58U C82U C94U C114A | -2.23 |
| U59C A83C C101G C115U U116A | -5.84 |
| C56U G110U A121U | -1.11 |
| G58A C101G | -1.94 |
| C56U U130G | -1.27 |

Reference: the RNAGym collection of RNA variant scans (doi:10.1073/pnas.2313332121)
